What all share (settings): both partners purified
Assay [1] addresses T1, Smad2 wild type, full length (UniProt Q62432 1-467).
T1 construct: Smad2, full length (FL), bacterially expressed from pET-30a; also called Smad2 WT; Smad2-FL; source: E. coli BL21 RIL codon plus, purified (Ni-NTA)
In words: fluorescence polarisation; fluorescence anisotropy; F-Ahx-labelled peptide fixed (2.5 μM in the methods, 2.5 nM in the legend), Smad2 WT or mutant varied (0-250 μM in the methods, 0-150 μM in the legend); 20 mM Tris pH 7.9, 160 mM NaCl; 10 min incubation.

Another assay deals with T2, Smad2-K420A (UniProt Q62432 1-467, K420A).
T2 construct: Smad2, full length, point mutant K420A; source: E. coli BL21 RIL codon plus, purified (Ni-NTA)
T2 sequence (Q62432 whole entry K420A): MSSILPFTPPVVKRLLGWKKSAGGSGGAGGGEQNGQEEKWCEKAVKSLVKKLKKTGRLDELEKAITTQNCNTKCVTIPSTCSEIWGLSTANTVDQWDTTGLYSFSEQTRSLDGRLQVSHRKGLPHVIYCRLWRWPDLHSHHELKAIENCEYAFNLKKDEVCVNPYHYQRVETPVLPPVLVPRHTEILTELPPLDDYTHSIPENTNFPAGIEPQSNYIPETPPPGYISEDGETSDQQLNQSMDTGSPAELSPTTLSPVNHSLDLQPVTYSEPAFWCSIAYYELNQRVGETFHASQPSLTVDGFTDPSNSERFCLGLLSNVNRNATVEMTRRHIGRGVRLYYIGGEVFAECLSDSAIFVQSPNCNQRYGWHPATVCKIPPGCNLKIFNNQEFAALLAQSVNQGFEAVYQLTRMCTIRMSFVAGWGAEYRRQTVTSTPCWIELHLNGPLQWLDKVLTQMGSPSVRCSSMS
The description is as above.

A further assay concerns the target T3, Smad2-E425K (UniProt Q62432 1-467, E425K).
T3 construct: Smad2, full length, charge-reversal point mutant E425K; source: E. coli BL21 RIL codon plus, purified (Ni-NTA)
The description is as above.

Assay [2] deals with T1, Smad2 wild type, full length. Described as above. This is another data set of the same source.
The target in the next assay is T4, Smad2-W422A (UniProt Q62432 1-467, W422A).
T4 construct: Smad2, full length, point mutant W422A; source: E. coli BL21 RIL codon plus, purified (Ni-NTA)
T4 sequence (Q62432 whole entry W422A): as the sequence (Q62432 whole entry K420A) above, with A420K, W422A counted along it
The description is as above.

The target in the next assay is T5, Smad2-R427A/R428A (UniProt Q62432 1-467, R427A | R428A).
T5 construct: Smad2, full length, double mutant R427A/R428A; also called RR/AA; source: E. coli BL21 RIL codon plus, purified (Ni-NTA)
T5 sequence (Q62432 whole entry R427A/R428A): as the sequence (Q62432 whole entry K420A) above, with A420K, R427A, R428A counted along it
Described as above.

The target in a further assay is T6, Smad2-Y426A (UniProt Q62432 1-467, Y426A).
T6 construct: Smad2, full length, point mutant Y426A; source: E. coli BL21 RIL codon plus, purified (Ni-NTA)
T6 sequence (Q62432 whole entry Y426A): as the sequence (Q62432 whole entry K420A) above, with A420K, Y426A counted along it
The description is as above.

The target in assay [3] is T1, Smad2 wild type, full length. Nature of the assay: fluorescence polarisation; fluorescence anisotropy as a1, in the presence of 50 μM POPC/POPS/PI(4,5)P2 (77:20:3) LUVs.

Square brackets hold non-standard residues; d marks the D form. Ends that are not written are not given here. fluorescein = fluorescein-6-aminohexanoyl (F-Ahx); pS = N[C@@H](COP(=O)(O)O)C(=O)O; Ahx = NCCCCCC(=O)O

As a reminder, the Kd is the concentration at which binding is half-saturated.

T1 sequence (Q62432 whole entry): as the sequence (Q62432 whole entry K420A) above, with A420K counted along it
T3 sequence (Q62432 whole entry E425K): as the sequence (Q62432 whole entry K420A) above, with A420K, E425K counted along it

B1: TβRI GS region peptide (F-Ahx-YDMTTpSGpSGpSGLPLL) (peptide)
peptide: {fluorescein-Ahx}-YDMTT[pS]G[pS]G[pS]GLPLL
notes: type I TGF-β receptor (TβRI), GS region, triply phosphorylated; also called GS peptide; TβRI peptide; source: synthetic peptide; bought: AlanScientific
In the case of B1, the Kd in assay [1] came out at 0.02 ± 0.006 µM; with Smad2-K420A it was 200 µM; with Smad2-E425K it was 8 µM; in assay [2] it was 20 µM; with Smad2-W422A, 21 µM; with Smad2-R427A/R428A, 44 µM. Further, the results for the Kd (with Smad2-Y426A; in assay [3]) were 20 µM and 0.06 ± 0.007 µM, respectively.

B2: TβRI L45 loop region peptide (F-Ahx-ADNKDNGT) (peptide)
peptide: {fluorescein-Ahx}-ADNKDNGT
notes: type I TGF-β receptor (TβRI), L45 loop; also called L45 peptide; L45 loop peptide; source: synthetic peptide; bought: AlanScientific
As to B2, the Kd with Smad2-K420A was 100 µM; with Smad2-E425K, 55 µM; in assay [2], 66 µM; with Smad2-W422A, 67 µM; with Smad2-R427A/R428A it was 75 µM; with Smad2-Y426A, 70 µM.

(Values after publication PMC8567202, “Phosphoinositide-binding activity of Smad2 is essential for its function in TGF-β signaling” (The Journal of Biological Chemistry, 2021).)
